Numbering of substitutions follows the chain as printed. Numbers in names are those of the source.

Assay in all cases: EMSA
Background: Mobility shift assays separate free from complexed probe on a gel.

Test [1] has as its target H3K4me3 147 bp mononucleosome, P68431. The note with it: chain shown with the change;; parent: 6.9 ± 0.8.
The target of test [2] is H3K4me3 187 bp mononucleosome, P68431. The note with it: chain shown with the change;; parent: 7.3 µM.
The target in test [3] is unmodified 147 bp mononucleosome, P68431. The settings on record: chain shown with the change;; parent: ≥ 12.5 ± 1.2.

B1: KDM5C^1–839, P41229-1 D87G (protein)
chain: MEPGSDDFLPPPECPVFEPSWAEFRDPLGYIAKIRPIAEKSGICKIRPPADWQPPFAVEVDNFRFTPRIQRLNELEAQTRVKLNYLGQIAKFWEIQGSSLKIPNVERRILDLYSLSKIVVEEGGYEAICKDRRWARVAQRLNYPPGKNIGSLLRSHYERIVYPYEMYQSGANLVQCNTRPFDNEEKDKEYKPHSIPLRQSVQPSKFNSYGRRAKRLQPDPEPTEEDIEKNPELKKLQIYGAGPKMMGLGLMAKDKTLRKKDKEGPECPPTVVVKEELGGDVKVESTSPKTFLESKEELSHSPEPCTKMTMRLRRNHSNAQFIESYVCRMCSRGDEDDKLLLCDGCDDNYHIFCLLPPLPEIPKGVWRCPKCVMAECKRPPEAFGFEQATREYTLQSFGEMADSFKADYFNMPVHMVPTELVEKEFWRLVNSIEEDVTVEYGADIHSKEFGSGFPVSDSKRHLTPEEEEYATSGWNLNVMPVLEQSVLCHINADISGMKVPWLYVGMVFSAFCWHIEDHWSYSINYLHWGEPKTWYGVPSLAAEHLEEVMKKLTPELFDSQPDLLHQLVTLMNPNTLMSHGVPVVRTNQCAGEFVITFPRAYHSGFNQGYNFAEAVNFCTADWLPAGRQCIEHYRRLRRYCVFSHEELICKMAACPEKLDLNLAAAVHKEMFIMVQEERRLRKALLEKGITEAEREAFELLPDDERQCIKCKTTCFLSALACYDCPDGLVCLSHINDLCKCSSSRQYLRYRYTLDELPAMLHKLKVRAESFDTWANKVRVALEVEDGRKRSLEELRALESEARERRFPNSELLQQLKNCLSEAEACVSRALGLVSGQEAG
Broadly, the Kd is a measure of binding affinity in units of concentration. With B1, the Kd in test [1] was determined as 2.3 µM; in test [2] it was 1.3 µM; in test [3], 1.8 µM.

B2: KDM5C^1–839, P41229-1 A388P (protein)
chain: B1 chain with G87D, A388P
Regarding B2, the Kd in test [1] was 3.7 µM; in test [2], 1.8 µM; in test [3] it was 3.1 µM.

The values are drawn from paper PMC10247153.
